For three molecules, ECL signal results are on record in US20120058906A1 (published 2012).

The target in experiment [1] is T1, rHuman P-Cadherin/Fc Chimera, CF (R&D Systems Cat#861-PC) (human, UniProt P22223 108-654).
T1 construct: Bought reagent; also called CDH3; Fc part of the bought chimera not given
Put plainly: ECL (MSD multi-spot), antigen spotted on plate; Fab 88.1 nM; blank spot 301.

For experiment [2], the target named is T2, rHuman Notch-1/Fc Chimera, CF (R&D Systems Cat#3647-TK) (human, UniProt P46531 19-526).
T2 construct: Bought reagent; Fc part of the bought chimera not given
Described as above.

Experiment [3] has as its target T3, rHuman CD44/Fc Chimera, CF (R&D Systems Cat#3660-CD) (human, UniProt P16070 21-220).
T3 construct: Bought reagent; Fc part of the bought chimera not given
The experiment is described as above.

The target in experiment [4] is T4, rHuman Erythropoietin R/Fc Chimera, CF (R&D Systems Cat#963-ER) (human, UniProt P19235 25-250).
T4 construct: Bought reagent; also called EPO R/Fc; Epo R; Fc part of the bought chimera not given
T4 sequence: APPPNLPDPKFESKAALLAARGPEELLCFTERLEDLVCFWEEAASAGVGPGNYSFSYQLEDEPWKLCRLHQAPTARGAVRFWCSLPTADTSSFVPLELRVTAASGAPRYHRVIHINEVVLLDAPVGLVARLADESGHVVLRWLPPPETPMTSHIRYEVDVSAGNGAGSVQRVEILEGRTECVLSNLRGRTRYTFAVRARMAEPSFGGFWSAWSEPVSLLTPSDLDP
The experiment is described as above.

Experiment [5] deals with T5, rHuman HGF R/c-MET/Fc Chimera, CF (R&D Systems Cat#358-MT/CF) (human, UniProt P08581 25-932).
T5 construct: Bought reagent; also called HGF R/Fc; hepatocyte growth factor receptor; Fc part of the bought chimera not given
Described as above.

Experiment [6] concerns the target T6, rHuman EGF R/Fc Chimera, CF (R&D Systems Cat#344-ER) (human, UniProt P00533 25-645).
T6 construct: Bought reagent; also called epidermal growth factor receptor; Fc part of the bought chimera not given
The description is as above.

Experiment [7] has as its target T7, Recombinant Human DLL4 (R&D Systems Cat#1506-D4/CF) (human, UniProt Q9NR61 27-524).
T7 construct: Bought reagent; also called delta-like protein 4
The experiment is described as above.

The target of experiment [8] is T8, rHuman ErbB2/Fc Chimera, CF (R&D Systems Cat#1129-ER) (human, UniProt P04626 23-652).
T8 construct: Bought reagent; also called HER2/neu; human epidermal growth factor 2 receptor; Fc part of the bought chimera not given
Described as above.

The target of experiment [9] is T9, rHuman IGF-1 sR (IGF-1 sR), CF (R&D Systems Cat#391-GR) (human, UniProt P08069 31-932).
T9 construct: Bought soluble receptor; also called insulin-like growth factor-1 soluble receptor; IGF-R1
Described as above.

Experiment [10] concerns the target T10, rHuman Notch-1/Fc Chimera, CF (R&D Systems Cat#3647-TK) (human, UniProt P46531 19-526).
T10 construct: Bought Fc chimera; Fc part of the bought chimera not given
Put plainly: ECL (MSD Multi-Spot) binding, antigen spotted on plate; Fab 0.5 nM.

Experiment [11] concerns the target T11, Recombinant Human DLL4 (R&D Systems Cat#1506-D4/CF) (human, UniProt Q9NR61 27-524).
T11 construct: Bought recombinant protein; also called delta-like protein 4
Described as above.

Experiment [12] deals with T12, rHuman Notch-1/Fc Chimera, CF (R&D Systems Cat#3647-TK) (human, UniProt P46531 19-526).
T12 construct: Fc part of the bought chimera not given
As to the kind of experiment: MSD ECL multi-spot plate; Fab 2.0 nM; blank spot 316.

Experiment [13] has as its target T13, rHuman CD44/Fc Chimera, CF (R&D Systems Cat#3660-CD) (human, UniProt P16070 21-220).
T13 construct: Fc part of the bought chimera not given
The experiment is described as above.

The target in experiment [14] is T14, rHuman IGF-1 sR, (IGF-1 sR), CF (R&D Systems Cat#391-GR) (human, UniProt P08069 31-932).
T14 construct: also called insulin-like growth factor-1 soluble receptor; IGF-R1
The description is as above.

Experiment [15] has as its target T15, rHuman HGF R/c-MET/Fc Chimera, CF (R&D Systems Cat#358-MT/CF) (human, UniProt P08581 25-932).
T15 construct: also called HGF R/Fc; hepatocyte growth factor receptor; Fc part of the bought chimera not given
Described as above.

Experiment [16] concerns the target T16, Recombinant Human DLL4 (R&D Systems Cat#1506-D4/CF) (human, UniProt Q9NR61 27-524).
T16 construct: also called delta-like protein 4
The experiment is described as above.

In experiment [17] the target is T17, rHuman EGF R/Fc Chimera, CF (R&D Systems Cat#344-ER) (human, UniProt P00533 25-645).
T17 construct: also called epidermal growth factor receptor; Fc part of the bought chimera not given
Described as above.

In experiment [18] the target is T18, rHuman ErbB2/Fc Chimera, CF (R&D Systems Cat#1129-ER) (human, UniProt P04626 23-652).
T18 construct: also called HER2/neu; human epidermal growth factor 2 receptor; Fc part of the bought chimera not given
The experiment is described as above.

Experiment [19] deals with T19, rHuman Erythropoietin R/Fc Chimera, CF (R&D Systems Cat#963-ER) (human, UniProt P19235 25-250).
T19 construct: also called EPO R/Fc; Epo R; Fc part of the bought chimera not given
T19 sequence: T4 sequence
Described as above.
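Further: blank spot per well as comparator with Hit at signal to blank ratio of 4 or more.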

B1: Fab VH1-46_IGHD3-10*01_IGHJ4*01 & B3_IGKJ1*01 (Fab, V domains shown)
VH: QVQLVQSGAEVKKPGASVKVSCKASGYTFTSYYMHWVRQAPGQGLEWMGIINPSGGSTSYAQKFQGRVTMTRDTSTSTVYMELSSLRSEDTAVYYCAREYYYGSGSYYNDYFDYWGQGTLVTVSS
VL: not shown
notes: also called IGHV1-46*01
Regarding B1, the ECL signal worked out at 278 in experiment [1]; 440 in experiment [2]; 340 in experiment [3]; 3370 in [4]; 392 in experiment [5]; 376 in [6]. Moreover, the ECL signal in experiment [7] amounted to 434; in experiment [8], 200; in experiment [9], 273.

B2: Fab VH1-46_IGHD6-6*01_IGHJ1*01_S102A_S103P_S104F_H111Y & L6_IGKJ1*01 (Fab, V domains shown)
VH: QVQLVQSGAEVKKPGASVKVSCKASGYTFTSYYMHWVRQAPGQGLEWMGIINPSGGSTSYAQKFQGRVTMTRDTSTSTVYMELSSLRSEDTAVYYCAREEYAPFSAEYFQYWGQGTLVTVSS
VL: not shown
notes: Fab made in E. coli; The heavy chain also carries the CH1 with Flag and His tags of Plasmid A, and the light chain the kappa constant region of Plasmid C
In the case of B2, the ECL signal in experiment [10] amounted to 263; in [11], 2970.

B3: Fab VH1-8_IGHD2-2*01_IGHJ6*01 & L12_IGKJ1*01 (Fab, V domains shown)
VH: QVQLVQSGAEVKKPGASVKVSCKASGYTFTSYDINWVRQATGQGLEWMGWMNPNSGNTGYAQKFQGRVTMTRNTSISTAYMELSSLRSEDTAVYYCARGGYCSSTSCYADYYYYYGMDVWGQGTTVTVSS
VL: not shown
Turning to B3, the ECL signal in experiment [12] stood at 539 ECL signal; in experiment [13], 447 ECL signal; in [14], 367 ECL signal; in [15], 356 ECL signal; in experiment [16], 605 ECL signal; in [17], 424 ECL signal. Besides, the results for the ECL signal in experiment [18] and in experiment [19] were 382 ECL signal and 433 ECL signal, respectively.
